In assay [1] the target is T1, BSA-coupled (PR)15 DPR protein peptide (bovine, conjugated via a bifunctional linker (SMCC) to bovine serum albumin).
T1 construct: also called BSA-(PR)15
Description: Western blot of BSA-coupled peptides. As for the experimental part: (§1) Resolved proteins were then electroblotted (Novex® Semi-Dry Blotter, 1 h, 25V) on methanol-activated PVDF membranes (Immobilon®-P Transfer Membrane, Merck & Cie, Schaffhausen, Switzerland) by the use of Novex® NuPAGE® transfer buffer 2× (Life Technologies Europe B.V., Zug, Switzerland). Non-specific binding sites were blocked overnight at 4° C. (or alternatively for 1 h at room temperature) with PBS/0.1% Tween®-20 containing 2% BSA (Sigma-Aldrich, Buchs, Switzerland) (PBST). […] Membranes were washed three times in PBST for 15 min at RT and then incubated with a donkey anti-human IgG Fcγ-specific antibody conjugated with HRP (1:20000 or 1:10000 dilution, Jackson ImmunoResearch Laboratories, Inc., West Grove, USA) for 1 h at room temperature. Antibody binding was determined by membrane development using ECL and ImageQuant 350 detection (GE Healthcare, Otelfingen, Switzerland).
(§2) The binding specificity of the human-derived antibodies to BSA-coupled C9orf72 dipeptide repeat proteins (GA)₁₅, (GP)₁₅, (GR)₁₅, (PA)₁₅ and (PR)₁₅ was determined by Western blot analysis.
For orientation: A western blot detects proteins with antibodies after separation by electrophoresis.

The target of assay [2] is T2, BSA-coupled (PA)15 DPR protein peptide (bovine, UniProt P02769 25-607, conjugated via a bifunctional linker (SMCC) to bovine serum albumin).
T2 construct: also called BSA-(PA)15
Briefly: Western blot of BSA-coupled peptides. Here is the method: as §1, §2

The target of assay [3] is T3, BSA-coupled (GR)15 DPR protein peptide (bovine, UniProt P02769 25-607, conjugated via a bifunctional linker (SMCC) to bovine serum albumin).
T3 construct: also called BSA-(GR)15
Briefly: Western blot of BSA-coupled peptides. Here is the method:
as §1, §2

The target of the next assay is T4, (GP)15: H-C(GP)15-OH.
T4 construct: synthetic, not coupled to BSA; also called poly-GP DPR protein peptide
T4 peptide: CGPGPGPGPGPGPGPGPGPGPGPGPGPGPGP
Briefly: indirect ELISA, coated uncoupled peptide. Here is the method:
In brief, dipeptide repeat proteins were synthesized and purified by Schafer-N(Copenhagen, Denmark): (GA)₁₅: H-CHHHHHH(GA)₁₅-OH; (GP)₁₅: H-C(GP)₁₅-OH; (GR)₁₅: H-C(GR)₁₅-OH; (PA)₁₅: H-C(PA)₁₅-OH; (PR)₁₅: H—C(PR)₁₅-OH. 96-well microplates (Corning Incorporated, Corning, USA) were coated with dipeptide repeat protein peptides at a concentration of either 5 μg/ml or 20 μg/ml in coating buffer (15 mM Na₂CO₃, 35 mM NaHCO₃, pH 9.42). Non-specific binding sites were blocked for 1 h at room temperature with PBS/0.1% Tween®-20 containing 2% BSA (Sigma-Aldrich, Buchs, Switzerland). Primary antibodies were diluted to the indicated concentrations and incubated for 1 h at room temperature, followed by incubation with a donkey anti-human IgG Fcγ-specific antibody conjugated with HRP (Jackson ImmunoResearch Laboratories, Inc., West Grove, USA). Binding was determined by measurement of HRP activity in a standard colorimetric assay. EC₅₀ values were estimated by non-linear regression using GraphPad Prism software (San Diego, USA). The binding specificity and EC₅₀ of human-derived antibodies for C9orf72 dipeptide repeat protein peptides (GA)₁₅, (GP)₁₅, (GR)₁₅, (PA)₁₅ and (PR)₁₅ were determined by indirect ELISA.
(In an ELISA, binding on a coated surface is turned into a signal by an enzyme label.)

The next assay deals with T5, GA6: H-(GA)6HHHHHH-NH2.
T5 peptide: H-GAGAGAGAGAGAHHHHHH-NH2
Briefly: indirect ELISA, coated His-tagged peptide; indirect ELISA, peptide coated directly on the plate. The source says:
In brief, dipeptide repeat proteins were synthesized and purified by Schafer-N (Copenhagen, Denmark): GA₂₀: H-(GA)₂₀HHHHHH-NH₂; GA₁₀: H-(GA)₁₀HHHHHH-NH₂; GA₆: H-(GA)₆HHHHHH-NH₂; GA₅: H-(GA)₅HHHHHH-NH₂; GA₄: H-(GA)₄HHHHHH-NH₂; GA₃: H-(GA)₃HHHHHH-NH₂; GA₂: H-(GA)₂HHHHHH-NH₂; GP₂₀: H-(GP)₂₀HHHHHH-NH₂; GP₁₀: H-(GP)₁₀HHHHHH-NH₂; GP₆: H-(GP)₆HHHHHH-NH₂; GP₅: H-(GP)₅HHHHHH-NH₂; GP₄: H-(GP)₄HHHHHH-NH₂; GP₃: H-(GP)₃HHHHHH-NH₂; GP₂: H-(GP)₂HHHHHH-NH₂. GR₂₀: H-(GR)₂₀HHHHHH-NH₂; GR₁₀: H-(GR)₁₀HHHHHH-NH₂; GR₆: H-(GR)₆HHHHHH-NH₂; GR₅: H-(GR)₅HHHHHH-NH₂; GR₄: H-(GR)₄HHHHHH-NH₂; GR₃: H-(GR)₃HHHHHH-NH₂; GR₂: H-(GR)₂HHHHHH-NH₂; PA₂₀: H-(PA)₂₀HHHHHH-NH₂; PA₁₀: H-(PA)₁₀HHHHHH-NH₂; PA₆: H-(PA)₆HHHHHH-NH₂; PA₅: H-(PA)₅HHHHHH-NH₂; PA₄: H-(PA)₄HHHHHH-NH₂; PA₃: H-(PA)₃HHHHHH-NH₂; PA₂: H-(PA)₂HHHHHH-NH₂; PR₂₀: H-(PR)₂₀HHHHHH-NH₂; PR₁₀: H-(PR)₁₀HHHHHH-NH₂; PR₆: H-(PR)₆HHHHHH-NH₂; PR₅: H-(PR)₅HHHHHH-NH₂; PR₄: H-(PR)₄HHHHHH-NH₂; PR₃: H-(PR)₃HHHHHH-NH₂; PR₂: H-(PR)₂HHHHHH-NH₂. 96-well microplates (Corning Incorporated, Corning, USA) were coated with dipeptide repeat protein peptides at a concentration of 50 μg/ml in coating buffer (15 mM Na₂CO₃, 35 mM NaHCO₃, pH 9.42). Non-specific binding sites were blocked for 1 h at room temperature with PBS/0.1% Tween®-20 containing 2% BSA (Sigma-Aldrich, Buchs, Switzerland). Primary antibodies were diluted to the indicated concentrations and incubated 1 h at room temperature, followed by incubation with a donkey anti-human IgG Fcγ-specific antibody conjugated with HRP (Jackson ImmunoResearch Laboratories, Inc., West Grove, USA). Binding was determined by measurement of HRP activity in a standard colorimetric assay. EC₅₀ values were estimated by non-linear regression using GraphPad Prism software (San Diego, USA).

The next assay addresses T6, GA5: H-(GA)5HHHHHH-NH2.
T6 peptide: H-GAGAGAGAGAHHHHHH-NH2
Briefly: indirect ELISA, coated His-tagged peptide. An outline of the steps:
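Antibodies at graded concentrations bound for 1 h at room temperature to wells carrying 50 μg/ml His-tagged repeat peptide (pH 9.42 carbonate coating, 2% BSA block). Bound IgG read colorimetrically via HRP anti-human Fcγ; EC₅₀ estimated by non-linear regression.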

Some results are limits rather than exact numbers.

T1 sequence (peptide, as listed by the source limits assumed, chain 1 of 2): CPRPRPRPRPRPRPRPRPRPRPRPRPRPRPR
T1 sequence (P02769 25-607 limits assumed, chain 2 of 2): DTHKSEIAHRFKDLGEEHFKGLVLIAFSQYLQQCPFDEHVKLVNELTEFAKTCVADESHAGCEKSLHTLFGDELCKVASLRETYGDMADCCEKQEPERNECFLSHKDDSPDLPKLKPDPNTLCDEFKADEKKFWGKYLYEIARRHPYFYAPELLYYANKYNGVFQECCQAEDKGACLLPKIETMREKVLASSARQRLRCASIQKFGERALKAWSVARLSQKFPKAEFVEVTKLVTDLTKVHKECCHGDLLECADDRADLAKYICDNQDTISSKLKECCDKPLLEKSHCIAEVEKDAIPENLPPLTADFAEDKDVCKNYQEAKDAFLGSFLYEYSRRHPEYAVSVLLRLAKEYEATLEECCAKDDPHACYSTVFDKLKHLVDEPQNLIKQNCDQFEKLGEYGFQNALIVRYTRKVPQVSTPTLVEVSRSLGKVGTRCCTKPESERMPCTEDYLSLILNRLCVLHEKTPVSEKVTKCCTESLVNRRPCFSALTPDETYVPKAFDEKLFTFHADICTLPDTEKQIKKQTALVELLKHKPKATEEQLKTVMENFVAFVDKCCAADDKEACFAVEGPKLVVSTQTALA
T3 sequence (peptide, as listed by the source limits assumed, chain 1 of 2): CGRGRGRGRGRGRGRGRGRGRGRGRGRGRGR
T3 sequence (P02769 25-607 limits assumed, chain 2 of 2): as the sequence (P02769 25-607 limits assumed, chain 2 of 2) above
T2 sequence (peptide, as listed by the source limits assumed, chain 1 of 2): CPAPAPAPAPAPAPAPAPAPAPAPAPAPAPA
T2 sequence (P02769 25-607 limits assumed, chain 2 of 2): as the sequence (P02769 25-607 limits assumed, chain 2 of 2) above

B1: NI-308.46E9 (antibody, V domains shown)
VH: QVQLQESGPGLVKPSETLSLTCTVSGASISGSTYYWGWIRQPPGKGLEYIGRIYYSGSTYYNPSLKSRATISVDTSKNQLSLTLSSVTAADTAVYYCVRPFYAGSGNSPFDYWGQGTLVTVSS
VL: CEIVLTQSPATVSVSPGERATLSCRASQSVSTNLAWYQQKPGQPPRLLIYGASTRATGIPARFSGSGSGAEFTLTISSLQSEDFVVYYCQQYNNWPPAFGGGTKVEIK
notes: Recombinant complete human IgG1, kappa
One may read the EC50 as the concentration at which the effect is half-maximal. A high value points to a less potent agent. As to B1, the binding result in assay [1], in assay [2] and in assay [3] was “no binding” throughout. Moreover, in the assay with (GP)15: H-C(GP)15-OH, the midpoint of the response, the EC50, lay at 13.9 nM.

B2: NI-308.5G2 (antibody, V domains shown)
VH: EVQLVQSGADLRNPGASVTVSCTASGYHFADNAINWLRQAPGQRLEWMGWINIYSGNTKYSQNFQGRVTFTRNTSASTAFMHLRSLRSEDTAVYFCARDPDSSGYYLPYFDYWGQGTLVTVSS
VL: DIQLTQSPDSLTLSLGERATINCKSSQSVFYNSNNKNYLAWYQQKPGQPPKLLMYWASTRESGVTDRFSGSGSGTDFTLTITNLQAEDVAVYYCQQFYSSPLTFGGGTKVEIK
notes: as for B1
For the molecule B2, the binding result in assay [1], in assay [2] and in assay [3] was “no binding” each time. Also, in the assay with (GP)15: H-C(GP)15-OH, a half-maximal response (EC50) required 0.88 nM.

B3: NI-308.28G1 (antibody, V domains shown)
VH: QVQLQESGPRLVKPSETLSLTCTVAGGSVNSYYWTWIQQSPGKGLEWLGRIYIAGRTNYNPSLTSRIALSVDTSRNQLSLKLTSVTAADTAIYYCARWGAESGDYYYGVDVWGPGTLVTVSS
VL: EIVMTQSPLSLPVTPGEPASISCKSSEGLLHSNGYTYLDWYLQKPGQAPQLLIFLASNRAAGVPDRFSGSGSGTDFTLKISRVEAEDVGVYYCMQAIQSPWTFGPGTKVEIK
notes: as for B1
Regarding B3, the EC50 with GA6: H-(GA)6HHHHHH-NH2 is 6.3 nM; in the assay with GA5: H-(GA)5HHHHHH-NH2, more than 200 nM.

B4: NI-308.15O7 (antibody, V domains shown)
VH: QVQLVESGGGVVQPGRSLRLSCAASGFTFSNHAMHWVRQAPGKGLEWVAVISYDGENTYYADSIEGRFTISRDNFKNTLFLQMYSLTADDTAMYFCARGGRRGHFTSYYLDYWGQGTLVTVSS
VL: CDIQMTQSPSSLSASVGDRVTITCRASQNIDKYLNWYQQIPGKAPKLLIYAASSLHSGVPSRFSGSGSGTDFSLTISSLQPEDFAIYYCQQSYSSFRTFGQGTKLEIK
B4: the EC50 with GA6: H-(GA)6HHHHHH-NH2 is 7.9 nM; with GA5: H-(GA)5HHHHHH-NH2, more than 150 nM.
